In the assay the target is T1, purified recombinant Flag-tagged HER2 C-terminal domain (human, UniProt P04626 988-1255).
T1 construct: HER2, human, COOH-terminal domain; C-ter is defined as 988-1255 aa in the plasmid section; The results call this protein Flag-tagged; It may be the same construct as m14; source: HEK293T, transfected, purified (antibody bead column)
The assay is described as follows: pull-down; purified GST fusion proteins and purified HER2 C-terminal domain; Glutathione sepharose 4B (GSH beads). The following applies: both partners purified.

One molecule from paper PMC5180104, “Interaction of cytokeratin 19 head domain and HER2 in the cytoplasm leads to activation of HER2-Erk pathway” (Scientific Reports, 2016) can be followed below.

B1: GST-T4 (domain or fragment, human, UniProt P08727 1-79, looked up)
chain: MTSYSYRQSSATSSFGGLGGGSVRFGPGVAFRAPSIHGGSGGRGVSVSSARFVSSSSSGAYGGGYGGVLTASDGLLAGN
notes: KRT19, human, T4 fragment (head domain); also called GST-T4 wt; source: E. coli, purified (Glutathione sepharose 4B column)
On to B1, for which the binding result is reported as “binds”.
